Positions count from the first letter of the chain named. Numbers in names are those of the source.
B1: wild-type human mitochondrial single-stranded DNA-binding protein (SSBP1) (natural protein, UniProt Q04837 17-148, looked up)
chain: ESETTTSLVLERSLNRVHLLGRVGQDPVLRQVEGKNPVTIFSLATNEMWRSGDSEVYQLGDVSQKTTWHRISVFRPGLRDVAYQYVKKGSRIYLEGKIDYGEYMDKNNVRRQATTIIADNIIFLSDQTKEKE
notes: No tag is mentioned; also called WT SSBP1; HmtSSB; source: E. coli BL21(DE3), purified (Affi-Gel Blue, MonoQ, Superdex 200)
B2: p.E27K human mitochondrial single-stranded DNA-binding protein (SSBP1) (natural protein, UniProt Q04837 17-148, looked up)
chain: B1 chain with E11K
notes: Homotetramer of four mutant chains; The variant was found de novo in a patient; No tag is mentioned; also called p.E27K SSBP1; E27K SSBP1; source: E. coli BL21(DE3), purified (Affi-Gel Blue, MonoQ, Superdex 200)

Columns and labels:
SSBP1 p.E27K = target: T1, SSBP1 p.E27K (human, UniProt Q04837 17-148, E27K); assay: fluorescence anisotropy; 5 mM MgCl2; apparent Kd, protein as tetramer; 20 nM DNA; quadratic fit; plateau anisotropy about 1.4-fold higher than WT; 30 mM HEPES-KOH pH 7.6, 50 mM KCl, 2 mM DTT, 5 mM MgCl2, 20 nM FAM-oligonucleotide, 37 C; conditions: protein: recombinant; chain copies: 4; label: 3' FAM (fluorescein); single strand
T1 sequence: B1 chain with E11K

SSBP1 WT (mtSSB) = target: T2, SSBP1 WT (mtSSB) (human, UniProt Q04837 17-148); assay: fluorescence anisotropy; 5 mM MgCl2; apparent Kd, protein as tetramer; 20 nM DNA; quadratic fit; 30 mM HEPES-KOH pH 7.6, 50 mM KCl, 2 mM DTT, 5 mM MgCl2, 20 nM FAM-oligonucleotide, 37 C; conditions: protein: recombinant; chain copies: 4; label: 3' FAM (fluorescein); single strand
T2 sequence: B1 chain

[1] = target: the molecule itself; assay: SEC; Superdex 200 10/300 GL, AKTA FPLC, Storage Buffer (30 mM HEPES-KOH pH 7.6, 250 mM KCl, 0.25 mM EDTA, 2 mM dithiothreitol, 10% glycerol); purified recombinant protein; single peak read as tetramer

Binder	Kd (SSBP1 p.E27K) [nM]	Kd (SSBP1 WT (mtSSB)) [nM]	stoichiometry N [1]
AATGCTATCACTATTCGTAGACTTGACCACACCTTGTCAGCTCACGCTCC (ssDNA) [FAM-labeled 50 nt ssDNA]	9.3	2.3	–
B1	–	–	4
B2	–	–	4
